Results taken from publication PMC2888680.

Legend:
[1] = anti-NEU1 immunoblot, Phoenix-A lysates; conditions: glycan lost; control: wild-type mNEU1
[2] = limited in vitro trypsin proteolysis of purified protein; conditions: glycan lost; control: wild-type mNEU1
[3] = 4-MU-NANA activity, Phoenix-A lysates, PPCA coexpressed; conditions: glycan lost; control: wild-type mNEU1
[4] = 4-MU-NANA activity, neu1-/- fibroblasts, PPCA cotransduced; conditions: glycan lost; control: wild-type mNEU1 coexpressed with PPCA
[5] = anti-NEU1 immunoblot, transduced NEU1-deficient fibroblasts; conditions: glycan lost; control: wild-type mNEU1
[6] = 4-MU-NANA activity, neu1-/- fibroblasts, endogenous PPCA only; conditions: glycan lost; control: wild-type mNEU1

| Substance | expression_or_secretion [1] | stability_or_folding [2] | enzymatic_activity, percent_of_wt [3] | enzymatic_activity [4] | expression_or_secretion [5] | enzymatic_activity, percent_of_wt [6] |
| --- | --- | --- | --- | --- | --- | --- |
| murine NEU1 (mNEU1): N180D (mut1) | decreases | decreases | – | – | – | – |
| murine NEU1 (mNEU1): N337D (mut2) | no change | no change | decreases | no change | decreases | – |
| murine NEU1 (mNEU1): N346D (mut3) | no change | no change | decreases | – | decreases | decreases |
| murine NEU1 (mNEU1): N372D (mut4) | no change | no change | no change | no change | no change | no change |
